Broadly, the IC50 is the concentration that inhibits the measured activity by half. High values mean weaker potency, low ones greater potency. One may read the Kd as the concentration at which binding is half-saturated. Low values mean a tighter complex, high ones a looser complex. By koff is commonly meant the rate constant with which the complex falls apart. In general, kon refers to the second-order rate constant of association. By EC50 is commonly meant the concentration that produces a half-maximal response. Low values mean higher potency in that assay, high ones lower potency in that assay.

We go through nine molecules from patent publication US20260028422A1 (CONCEPT TO MEDICINE BIOTECH, published 2026).

The target in experiment [1] is T1, Human MerTK-mouse Fc fusion protein (human, UniProt Q12866 21-499, limits assumed).
T1 construct: also called hMerTK; Human MerTK-mouse Fe fusion protein
T1 sequence (looked up): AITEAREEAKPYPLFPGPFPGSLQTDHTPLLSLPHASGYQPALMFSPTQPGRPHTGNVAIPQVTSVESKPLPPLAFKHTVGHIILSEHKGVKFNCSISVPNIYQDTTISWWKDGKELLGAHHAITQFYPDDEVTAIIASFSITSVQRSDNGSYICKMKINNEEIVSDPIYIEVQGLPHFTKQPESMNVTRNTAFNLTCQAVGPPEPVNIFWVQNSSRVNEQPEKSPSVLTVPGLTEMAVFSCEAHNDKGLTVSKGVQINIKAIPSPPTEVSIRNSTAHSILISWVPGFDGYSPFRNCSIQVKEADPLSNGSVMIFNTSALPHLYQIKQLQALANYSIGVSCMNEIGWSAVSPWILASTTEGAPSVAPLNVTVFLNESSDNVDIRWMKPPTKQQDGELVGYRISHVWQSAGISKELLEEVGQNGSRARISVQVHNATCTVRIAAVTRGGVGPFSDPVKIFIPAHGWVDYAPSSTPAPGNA
Kind of experiment: FACS blocking: binding of human MerTK-mouse Fc to Jurkat cells overexpressing human Gas6, MFI (AF488). Here is the method:
(§1) To evaluate the blocking effects of anti-hMerTK mAbs on hMerTK binding to its ligand hGas6, a receptor blocking assay was set-up. Briefly, Jurkat cells engineered to overexpress human Gas6 were added to the 96-well microplates at a density of 5×10⁴ cells per well. Human MerTK-mouse Fe fusion protein (50 μL/well, […]) and the MerTK chimeric antibodies with a 3-fold serial dilution starting from 120 nM at a volume of 50 μL were added to the 96-well plates and incubated at 4° C. for 30 mins. After washing with FACS buffer, the plates were incubated with diluted Alex Fluor 488 conjugated goat anti-mouse IgG antibody for 30 mins at 4′C. After washing, the plates were analyzed by QuantAnalyzer 16.

For experiment [2], the target named is T2, human MerTK-his protein (human, UniProt Q12866 21-505).
T2 construct: extracellular domain; also called hMerTK-His; human MerTK protein
T2 sequence (looked up): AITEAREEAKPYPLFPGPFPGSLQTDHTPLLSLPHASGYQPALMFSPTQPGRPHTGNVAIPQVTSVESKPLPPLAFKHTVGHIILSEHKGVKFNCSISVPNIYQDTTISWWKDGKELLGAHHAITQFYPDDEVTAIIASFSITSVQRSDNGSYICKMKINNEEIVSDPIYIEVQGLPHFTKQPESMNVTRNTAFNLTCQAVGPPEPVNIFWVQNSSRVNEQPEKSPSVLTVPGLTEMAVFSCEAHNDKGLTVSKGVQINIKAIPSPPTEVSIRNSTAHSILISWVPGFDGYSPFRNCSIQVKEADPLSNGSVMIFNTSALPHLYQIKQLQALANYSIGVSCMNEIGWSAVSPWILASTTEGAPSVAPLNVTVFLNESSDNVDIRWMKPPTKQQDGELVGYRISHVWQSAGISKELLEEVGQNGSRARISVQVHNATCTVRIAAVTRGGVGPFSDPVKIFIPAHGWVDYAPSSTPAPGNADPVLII
Kind of experiment: SPR Biacore T200, antibody captured on Protein A chip. On the procedure: The binding affinity of the MerTK chimeric antibodies to human MerTK-his protein was tested with Biacroe™ T200 using a capture method. Briefly, the antibodies were captured with a Pro-A chip. […] The antigen was allowed to dissociate for 420-800 s. Data analysis was carried out using Biacore™ T200 evaluation software.
Background: In SPR one partner is held on a chip, and binding of the other changes the refractive index at the surface.

In experiment [3] the target is T3, human MerTK expressed on cells (human, UniProt Q12866 21-999).
T3 construct: whole, on cells; also called CHO-K1-hMerTK; CHO-K1-MerTK
T3 sequence (looked up): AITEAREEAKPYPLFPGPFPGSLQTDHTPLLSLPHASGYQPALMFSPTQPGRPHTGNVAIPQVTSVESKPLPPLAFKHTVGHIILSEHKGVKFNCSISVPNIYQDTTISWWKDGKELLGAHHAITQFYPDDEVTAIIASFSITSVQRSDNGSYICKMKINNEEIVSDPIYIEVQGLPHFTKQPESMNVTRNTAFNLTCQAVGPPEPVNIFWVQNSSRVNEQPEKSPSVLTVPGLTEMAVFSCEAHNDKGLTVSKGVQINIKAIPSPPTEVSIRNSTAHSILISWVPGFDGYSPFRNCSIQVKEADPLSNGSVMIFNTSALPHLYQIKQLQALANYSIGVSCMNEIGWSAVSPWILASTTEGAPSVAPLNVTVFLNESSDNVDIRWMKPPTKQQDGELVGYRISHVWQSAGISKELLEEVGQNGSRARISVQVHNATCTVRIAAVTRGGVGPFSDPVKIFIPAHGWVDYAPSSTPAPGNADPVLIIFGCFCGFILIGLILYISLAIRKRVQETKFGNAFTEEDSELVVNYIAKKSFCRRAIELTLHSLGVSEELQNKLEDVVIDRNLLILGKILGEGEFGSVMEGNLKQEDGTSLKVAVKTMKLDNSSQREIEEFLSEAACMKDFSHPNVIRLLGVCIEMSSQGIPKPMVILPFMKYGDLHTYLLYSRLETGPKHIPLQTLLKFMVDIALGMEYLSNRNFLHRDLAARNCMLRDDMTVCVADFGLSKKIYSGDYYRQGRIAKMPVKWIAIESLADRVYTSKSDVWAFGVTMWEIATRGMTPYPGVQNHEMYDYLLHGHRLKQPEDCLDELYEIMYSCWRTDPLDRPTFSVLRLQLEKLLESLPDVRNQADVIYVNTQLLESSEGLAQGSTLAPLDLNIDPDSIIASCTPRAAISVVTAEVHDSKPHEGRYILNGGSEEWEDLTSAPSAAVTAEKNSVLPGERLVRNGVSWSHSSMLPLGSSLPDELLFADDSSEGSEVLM
Kind of experiment: FACS on SK-MEL-5 cells expressing human MerTK, geometric mean. On the procedure:
To evaluate the binding properties on MerTK expressed on cells, the chimeric monoclonal antibodies were analyzed for their binding to human melanoma cell line SK-MEL-5 expressing MerTK by FACS analysis. Briefly, SK-MEL-5 cells were firstly incubated with 5-fold serially diluted chimeric mAbs starting at 20 nM at 4° C. for 30 mins. After washing by FACS buffer, the PE conjugated anti-human IgG secondary antibody was incubated with the cell-antibody complex in the wells at 4° C. for 30 mins to detect the antibodies those bound to the cells. The MFI of PE was evaluated by QuantAnalyzer 16.

Experiment [4] addresses T1, Human MerTK-mouse Fc fusion protein. Kind of experiment: FACS blocking: binding of human MerTK-mouse Fc to Jurkat cells overexpressing human Gas6, MFI (AF488). On the procedure:
as §1
This is another data set of the same source.

Like-named read-outs stand apart in the source and are kept apart here.

B1: 216G3D6 chimeric monoclonal antibody (antibody, V domains shown)
VH: QVTLKESGPGILQPSQTLSLTCSFSGFSLSTSGMGVGWIRQPSGKGLEWLAHIWWDDDKHCNPALKSRLTISKDTSSNQVFLKIASLDTADTATYYCTQMTMTREFAYWGQGTLVTVSA
VL: DIQMTQTISSLSASLGDRVTISCSAGQGISNYLNWYQQKPDGTVKLLIYYTSRLHSGVPSRFSGSGSGTDFSLTISNLEPEDIATYFCQQYSKFPYTFGGGTKLEIK
In the case of B1, the concentration for half-maximal inhibition (IC50) in experiment [1] is 0.802 nM. In experiment [2], this molecule returned a Kd of 0.852 nM, an off-rate constant (koff) of 8.97e-05 s⁻¹ and a kon of 105000 M⁻¹ s⁻¹.

B2: 276C2D1 chimeric monoclonal antibody (antibody, V domains shown)
VH: QVQLQQSGPELVKPGASVKLSCKASGYTFTSYDINWVKQRPGLGLEWIGWIYPRDGYTKYNEKFKGKATLAVDTSSSTAYMELHSLTSEDSAVYFCARGYYSNLYYFDYWGQGTTLTVSS
VL: EVVLTQSPPTMAASPGEKITITCSASSSISSNYLHWYQQKPGFSPKLLIYRTSNLASGVPARFSGSGSGTSYSLTIGTMEAEDVATYYCQQGRSIPLTFGAGTKLELK
In experiment [3], B2 yielded a half-maximal effective concentration (EC50) of 0.044 nM and a Top of 6950 Geometric Mean. This molecule also gave an IC50 in experiment [4] of 0.813 nM. In experiment [2], this molecule showed a Kd of 12.7 nM, a koff of 0.00223 s⁻¹ and a kon of 175000 M⁻¹ s⁻¹.

B3: 280C6A3 chimeric monoclonal antibody (antibody, V domains shown)
VH: QVQLQQSGPELVKPGASVKLSCKASGYSFTTYDINWVKQRPGQGLEWIGWIYPRDGSTKYNEKFKGKATLTLDTSSNTAYMGLHSLTSEDSAVYFCARGYYDNLYYFDYWGQGTTLTVSS
VL: EIVLTQSPTTMAASPGEKITITCSASSSVSSNYLHWYQQKPGFSPKLLIYRTSNLASGVPARFSGSGSGTSYSLTIGTMEAEDVATYYCQQGRIVPLTFGAGTKLELK
Regarding B3, in experiment [3], it took 0.039 nM to reach a half-maximal effect (EC50) and the Top turned out to be 7490 Geometric Mean. Moreover, in experiment [4], the half-inhibitory concentration (IC50) worked out at 0.701 nM. In experiment [2], the dissociation constant (Kd) amounted to 3.08 nM, the koff came out at 0.000553 s⁻¹ and the kon is 179000 M⁻¹ s⁻¹.

B4: 293C2B7 chimeric monoclonal antibody (antibody, V domains shown)
VH: QVQLQQSGPELVKPGASVKLSCKASGYTFTSYDINWVKQRPGQGLEWIGWIYPRDGYTKYKEKFKGKATLTVDTSSSTAYMELHSLTSEDSAVYFCARGFYSNLYYFDYWGQGTTLTVSS
VL: EIVLTQSPTTMATSPGEKITITCSASSSISSNYLHWYQQKPGFSPKLLIYRTSNLASGVPDRFSGSGSGTSYSLTIGTMEAEDVATYYCQQGRSIPLTFGAGTKLELK
In experiment [3], B4 had a 50% effective concentration (EC50) of 0.055 nM and a Top of 6960 Geometric Mean. The IC50 in experiment [4] is 0.779 nM.

B5: 265F11B5 chimeric monoclonal antibody (antibody, V domains shown)
VH: QVQLQQSGPELVKPGASVRLSCKASGYTFTTYDINWVKQRPGLGLEWIGWIYPRDGYTKYNEKFKGRATLAVDTSSSTAYMELHSLTSEDSAVYFCTRGYYDNLYYFDYWGQGTTLTVSS
VL: EIVLTQSPTTVAASPGEKITITCSASSIISSNYFHWYQQRPGFSPKLLIYRTSNLASGVPARFSGSGSGTSYSLTIGTMEAEDVATYYCQQGRSVPLTFGAGTKLELK
In experiment [3], B5 came in with an EC50 of 0.048 nM and a Top of 7750 Geometric Mean. For the same molecule, in experiment [4], the 50% inhibitory concentration (IC50) turned out to be 0.798 nM. Besides, in experiment [2], the dissociation constant (Kd) came out at 1.22 nM, the dissociation rate constant (koff) was 0.000232 s⁻¹ and the association rate constant (kon) stood at 191000 M⁻¹ s⁻¹.

B6: 300A5A3 chimeric monoclonal antibody (antibody, V domains shown)
VH: QVQLQQSGPELVKPGASVKLSCKASGYTFTTYDINWVKQRPGLGLEWIGWIYPRDGYTKYNEKFKGKATLAVDTSSSTASMELHSLTSEDSAVYFCARGYYDNLYYFDNWGPGTTLTVSS
VL: ENVLTQSPTTVAASPGEKITITCSASSIISSNYLHWYQQKPGFSPKLLIYRTSNLASGVPARFSGSGSGTSYSLTIGTMEAEDAATYYCQQGRSVPLTFGAGTKLELK
Take B6: in experiment [3], the 50% effective concentration (EC50) was found to be 0.074 nM and the Top was determined as 7490 Geometric Mean. This molecule also gave an IC50 in experiment [4] of 0.867 nM. Moreover, in experiment [2], the Kd amounted to 1.36 nM, the off-rate constant (koff) worked out at 0.00029 s⁻¹ and the kon worked out at 214000 M⁻¹ s⁻¹.

B7: 254B4D9 chimeric monoclonal antibody (antibody, V domains shown)
VH: QIQLVQSGPELKKPGETVKISCKASGYTFTAYGMSWVKQAPGKGLQWMGWINTYSGVPTYTDDFKGRFAFSLEASASTAFLQINNLKNEDTSTYFCARRAAVVAKYWYFDVWGTGTTVTVSS
VL: DIQMTQSPSSLFASLGGKVIITCKSSQDINKRISWYQHKPGKGPRLLIHSTSSLQPGIPLRFSGSGSGRDYSFSISNLEPEDIATYFCLQYDNLLTFGAGTKLELK
Molecule B7 registered an IC50 in experiment [4] of approximately 0.773 nM. In experiment [2], this molecule showed a Kd of 11.9 nM, a koff of 0.000782 s⁻¹ and a kon of 65500 M⁻¹ s⁻¹.

B8: 10F7D9 chimeric monoclonal antibody (antibody, V domains shown)
VH: QIQLVQSGPELKKPGETVKISCKASGYTFTNYGMNWVKQAPGKGLKWMGWINTYTGEPTYADDFKGRFAFSLETSASTAYLQINNLKNEDLATYFCATYGHYAWFAYWGQGTLVTVSA
VL: QIVLSQSPAILSASPGEKVTMTCRASSSVSYMHWYQQKSGSSPKPWIYATSNLASGVPARFSGSGSGTSYSLTISRVEAEDAATYFCQQWGTKPLTFGAGTKLELK
As to B8, the IC50 in experiment [1] worked out at 0.696 nM. In experiment [2], the dissociation constant Kd amounted to 4.29 nM, the off-rate (koff) was found to be 0.00238 s⁻¹ and the kon was determined as 554000 M⁻¹ s⁻¹.

B9: 85H8D5 chimeric monoclonal antibody (antibody, V domains shown)
VH: QIQLVQSGPELKKPGETVKISCMASGYTFTTHGVTWVKQAPGQGLQRMGWINTYSGVPTYADDFKGRFVFSLETSANTAHLQINNLKNEDTATYFCARTNNYRYFDVWGTGTTVTVSS
VL: QIVLSQSPAILSSSPGEKVTMTCRASSSVSYMHWYQQKPGSSPKPWIYATSNLASGVPARFSGSGSGTSYFLTISRVEAEDAATYYCQQWNTDPPTFGGGTKLEIK
As to B9, the IC50 in experiment [1] was 0.802 nM. Moreover, in experiment [2], the Kd was found to be 11.4 nM, the koff came out at 0.00664 s⁻¹ and the kon worked out at 582000 M⁻¹ s⁻¹.
